Measurements: PMC11721465 (Molecular Neurodegeneration, 2025)

T1: Human IL-34 (19–241) (human, UniProt Q6ZMJ4 19-241)
T1 construct: IL-34, human, residues 19-241; source: Expi293F cells, secreted, purified from the media using NiNTA chromatography
T1 sequence (looked up): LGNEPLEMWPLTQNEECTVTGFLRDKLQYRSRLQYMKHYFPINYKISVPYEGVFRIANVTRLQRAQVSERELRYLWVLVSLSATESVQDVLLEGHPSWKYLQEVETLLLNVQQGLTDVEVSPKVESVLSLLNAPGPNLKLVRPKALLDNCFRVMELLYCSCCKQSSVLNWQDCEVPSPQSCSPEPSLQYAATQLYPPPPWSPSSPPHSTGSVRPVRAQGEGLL


Legend:
Conditions in all cases: both partners purified
[1] = biological target: T2, oligomeric amyloid beta 42 (UniProt P05067 672-713); test: not stated; KD of oAβ42 and TREM2 referred to Supplemental Fig. 9; method not given
T2 construct: amyloid beta 42 (Aβ42), cut product of the amyloid precursor protein; oligomers of unstated size; also called oAβ42; Aβ42 oligomers; source: bought: Anaspec; oligomers made from HFIP/DMSO-treated peptide in PBS, 37 °C, 3 h

[2] = biological target: T1, Human IL-34 (19–241); test: BLI; biotinylated TREM2 WT or variant immobilised on SA biosensors; IL-34 62.5–1000 nM; PBS with 0.1% BSA and 0.005% Tween-20; 1:1 kinetic fits
[3] = biological target: T3, TDP-43, full length, soluble oligomers (human, UniProt Q13148 1-414); test: BLI; biotinylated TREM2 WT or variant immobilised on SA biosensors; TDP-43 oligomers 0.625–10 µM; PBS with 0.1% BSA and 0.005% Tween-20; biphasic curves, only qualitatively evaluated
T3 construct: TDP-43, human, full length; oligomers of unstated size; also called oligomeric TDP-43; TDP-43 oligomers; source: E coli, purified from insoluble inclusion bodies, solubilized in 6 M guanidine, oligomers made by 1:100 dilution
T3 sequence (Q13148 whole entry): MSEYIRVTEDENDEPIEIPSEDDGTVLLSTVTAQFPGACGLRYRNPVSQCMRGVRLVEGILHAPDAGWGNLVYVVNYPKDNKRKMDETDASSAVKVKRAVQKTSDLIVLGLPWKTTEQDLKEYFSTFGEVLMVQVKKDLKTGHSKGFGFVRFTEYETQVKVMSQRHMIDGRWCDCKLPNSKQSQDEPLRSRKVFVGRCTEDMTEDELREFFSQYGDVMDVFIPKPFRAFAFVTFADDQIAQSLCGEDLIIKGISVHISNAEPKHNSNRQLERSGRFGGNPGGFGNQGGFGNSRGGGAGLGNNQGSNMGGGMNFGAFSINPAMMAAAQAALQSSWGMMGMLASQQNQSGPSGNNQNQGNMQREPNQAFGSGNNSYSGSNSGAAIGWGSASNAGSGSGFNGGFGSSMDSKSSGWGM

[4] = biological target: T4, apolipoprotein E3 (UniProt P02649 19-317); test: BLI; biotinylated TREM2 WT or variant immobilised on streptavidin (SA) biosensors; apoE in solution (apoE4 0.012–50 µM); PBS with 0.1% BSA and 0.005% Tween-20; double-reference subtraction; steady-state analysis
T4 construct: also called apoE3
T4 sequence (P02649 19-317): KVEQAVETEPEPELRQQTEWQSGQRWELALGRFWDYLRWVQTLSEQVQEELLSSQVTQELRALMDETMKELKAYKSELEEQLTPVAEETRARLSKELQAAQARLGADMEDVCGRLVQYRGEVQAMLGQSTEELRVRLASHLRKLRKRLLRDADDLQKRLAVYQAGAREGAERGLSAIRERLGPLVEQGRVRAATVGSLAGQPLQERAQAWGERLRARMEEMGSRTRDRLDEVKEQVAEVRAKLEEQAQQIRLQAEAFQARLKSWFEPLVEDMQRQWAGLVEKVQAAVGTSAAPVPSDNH

Row | Binder | Kd [1] | Kd [2] | binding result [3] | Kd [4]
1 | TREM2 (19–134) WT, biotinylated (domain or fragment, human, UniProt Q9NZC2 19-134, looked up, biotin on the C-terminal BirA biotinylation sequence (enzymatic, BirA), glycosylated (mammalian cells); also called TREM2 WT; source: Expi293F cells, purified, enzymatically biotinylated using BirA) HNTTVFQGVAGQSLQVSCPYDSMKHWGRRKAWCRQLGEKGPCQRVVSTHNLWLLSFLRRWNGSTAITDDTLGGTLTITLRNLQPHDAGLYQCQSLHGSEADTLRKVLVEVLADPLD | 42 nM | 16.5 ± 0.2 nM | binds | 
2 | TREM2 (19–134) D87N, biotinylated (domain or fragment, human, UniProt Q9NZC2 19-134, looked up, biotin on the C-terminal BirA biotinylation sequence (enzymatic, BirA), AD risk variant that occurs in nature; source: Expi293F cells, purified, enzymatically biotinylated using BirA) HNTTVFQGVAGQSLQVSCPYDSMKHWGRRKAWCRQLGEKGPCQRVVSTHNLWLLSFLRRWNGSTAITDNTLGGTLTITLRNLQPHDAGLYQCQSLHGSEADTLRKVLVEVLADPLD |  | 28.4 ± 0.5 nM | binds | 79 nM
3 | TREM2 (19–134) R122E, biotinylated (domain or fragment, human, UniProt Q9NZC2 19-134, looked up, biotin on the C-terminal BirA biotinylation sequence (enzymatic, BirA), source: Expi293F cells, purified, enzymatically biotinylated using BirA) HNTTVFQGVAGQSLQVSCPYDSMKHWGRRKAWCRQLGEKGPCQRVVSTHNLWLLSFLRRWNGSTAITDDTLGGTLTITLRNLQPHDAGLYQCQSLHGSEADTLEKVLVEVLADPLD |  | 29.4 ± 0.4 nM |  | 
4 | TREM2 (19–134) R46D, biotinylated (domain or fragment, human, UniProt Q9NZC2 19-134, looked up, biotin on the C-terminal BirA biotinylation sequence (enzymatic, BirA), source: Expi293F cells, purified, enzymatically biotinylated using BirA) HNTTVFQGVAGQSLQVSCPYDSMKHWGDRKAWCRQLGEKGPCQRVVSTHNLWLLSFLRRWNGSTAITDDTLGGTLTITLRNLQPHDAGLYQCQSLHGSEADTLRKVLVEVLADPLD |  | 18 ± 0.3 nM |  | 
5 | TREM2 (19–134) R62H, biotinylated (domain or fragment, human, UniProt Q9NZC2 19-134, looked up, biotin on the C-terminal BirA biotinylation sequence (enzymatic, BirA), AD risk variant that occurs in nature; source: Expi293F cells, purified, enzymatically biotinylated using BirA) HNTTVFQGVAGQSLQVSCPYDSMKHWGRRKAWCRQLGEKGPCQHVVSTHNLWLLSFLRRWNGSTAITDDTLGGTLTITLRNLQPHDAGLYQCQSLHGSEADTLRKVLVEVLADPLD |  | 75 nM | binds | 
6 | TREM2 (19–134) T85D, biotinylated (domain or fragment, human, UniProt Q9NZC2 19-134, looked up, biotin on the C-terminal BirA biotinylation sequence (enzymatic, BirA), source: Expi293F cells, purified, enzymatically biotinylated using BirA) HNTTVFQGVAGQSLQVSCPYDSMKHWGRRKAWCRQLGEKGPCQRVVSTHNLWLLSFLRRWNGSTAIDDDTLGGTLTITLRNLQPHDAGLYQCQSLHGSEADTLRKVLVEVLADPLD |  | 21.5 ± 0.6 nM |  | 
7 | TREM2 (19–134) W44D/L69D/L71D, biotinylated (domain or fragment, human, UniProt Q9NZC2 19-134, looked up, biotin on the C-terminal BirA biotinylation sequence (enzymatic, BirA), source: Expi293F cells, purified, enzymatically biotinylated using BirA) HNTTVFQGVAGQSLQVSCPYDSMKHDGRRKAWCRQLGEKGPCQRVVSTHNDWDLSFLRRWNGSTAITDDTLGGTLTITLRNLQPHDAGLYQCQSLHGSEADTLRKVLVEVLADPLD |  | 25.8 ± 0.3 nM |  | 
8 | TREM2 (19–134) L69D/L71D, biotinylated (domain or fragment, human, UniProt Q9NZC2 19-134, looked up, biotin on the C-terminal BirA biotinylation sequence (enzymatic, BirA), source: Expi293F cells, purified, enzymatically biotinylated using BirA) HNTTVFQGVAGQSLQVSCPYDSMKHWGRRKAWCRQLGEKGPCQRVVSTHNDWDLSFLRRWNGSTAITDDTLGGTLTITLRNLQPHDAGLYQCQSLHGSEADTLRKVLVEVLADPLD |  | 20.2 ± 0.3 nM |  | 

The next lines start with the values.

Row | Kd [1] | Kd [2] | binding result [3] | Kd [4] | Binder
9 |  | 23.7 ± 0.4 nM |  |  | TREM2 (19–134) T96K, biotinylated (domain or fragment, human, UniProt Q9NZC2 19-134, looked up, biotin on the C-terminal BirA biotinylation sequence (enzymatic, BirA), AD risk variant that occurs in nature; source: Expi293F cells, purified, enzymatically biotinylated using BirA) HNTTVFQGVAGQSLQVSCPYDSMKHWGRRKAWCRQLGEKGPCQRVVSTHNLWLLSFLRRWNGSTAITDDTLGGTLTIKLRNLQPHDAGLYQCQSLHGSEADTLRKVLVEVLADPLD
10 |  | 114 ± 4 nM |  |  | TREM2 (19–134) R77D, biotinylated (domain or fragment, human, UniProt Q9NZC2 19-134, looked up, biotin on the C-terminal BirA biotinylation sequence (enzymatic, BirA), source: Expi293F cells, purified, enzymatically biotinylated using BirA) HNTTVFQGVAGQSLQVSCPYDSMKHWGRRKAWCRQLGEKGPCQRVVSTHNLWLLSFLRDWNGSTAITDDTLGGTLTITLRNLQPHDAGLYQCQSLHGSEADTLRKVLVEVLADPLD
11 |  | 18.5 ± 0.3 nM |  |  | TREM2 (19–134) R122D/K123D, biotinylated (domain or fragment, human, UniProt Q9NZC2 19-134, looked up, biotin on the C-terminal BirA biotinylation sequence (enzymatic, BirA), source: Expi293F cells, purified, enzymatically biotinylated using BirA) HNTTVFQGVAGQSLQVSCPYDSMKHWGRRKAWCRQLGEKGPCQRVVSTHNLWLLSFLRRWNGSTAITDDTLGGTLTITLRNLQPHDAGLYQCQSLHGSEADTLDDVLVEVLADPLD
12 |  | 36.6 ± 0.9 nM |  |  | TREM2 (19–134) L75D, biotinylated (domain or fragment, human, UniProt Q9NZC2 19-134, looked up, biotin on the C-terminal BirA biotinylation sequence (enzymatic, BirA), source: Expi293F cells, purified, enzymatically biotinylated using BirA) HNTTVFQGVAGQSLQVSCPYDSMKHWGRRKAWCRQLGEKGPCQRVVSTHNLWLLSFDRRWNGSTAITDDTLGGTLTITLRNLQPHDAGLYQCQSLHGSEADTLRKVLVEVLADPLD
13 |  | 17.2 ± 0.4 nM |  |  | TREM2 (19–134) W78D, biotinylated (domain or fragment, human, UniProt Q9NZC2 19-134, looked up, biotin on the C-terminal BirA biotinylation sequence (enzymatic, BirA), source: Expi293F cells, purified, enzymatically biotinylated using BirA) HNTTVFQGVAGQSLQVSCPYDSMKHWGRRKAWCRQLGEKGPCQRVVSTHNLWLLSFLRRDNGSTAITDDTLGGTLTITLRNLQPHDAGLYQCQSLHGSEADTLRKVLVEVLADPLD
14 |  | 79.8 ± 2.4 nM | binds |  | TREM2 (19–134) R47H, biotinylated (domain or fragment, human, UniProt Q9NZC2 19-134, looked up, biotin on the C-terminal BirA biotinylation sequence (enzymatic, BirA), AD risk variant that occurs in nature; source: Expi293F cells, purified, enzymatically biotinylated using BirA) HNTTVFQGVAGQSLQVSCPYDSMKHWGRHKAWCRQLGEKGPCQRVVSTHNLWLLSFLRRWNGSTAITDDTLGGTLTITLRNLQPHDAGLYQCQSLHGSEADTLRKVLVEVLADPLD
